# T1: mTREX2 (Mus musculus, UniProt Q9R1A9 1-236)
# T1 sequence: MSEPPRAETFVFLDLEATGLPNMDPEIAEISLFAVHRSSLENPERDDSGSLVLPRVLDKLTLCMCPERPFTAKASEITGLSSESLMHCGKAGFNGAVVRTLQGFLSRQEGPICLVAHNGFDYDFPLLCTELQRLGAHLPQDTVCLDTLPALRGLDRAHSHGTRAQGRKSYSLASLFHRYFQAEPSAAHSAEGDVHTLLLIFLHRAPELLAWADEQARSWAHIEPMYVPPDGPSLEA
# How the values were obtained:
# [1] = target: the molecule itself; assay: crystal structure; apo-mTREX2 at 1.9 Å, one dimer in the asymmetric unit; a dimer is also seen in the Y-shaped DNA complex and the product (dCMP) complex
# [2] = target: T1, mTREX2; assay: X-ray crystallography (1.9 A); 2 Mg2+ per active site; Co-crystallization: mTREX2 5-8 mg/ml (stock 50 mM Tris-HCl, 400 mM NaCl, pH 7.0) with DNA at molar ratio 1:1.2; crystallization conditions in Table S2 not in the material; details: protein: recombinant; tags: pET28a vector, TALON-purified (His tag implied); chain copies: 2; hairpin; 1-nt unpaired 3' overhang, 4-nt unpaired 5' overhang; 2 DNAs per protein dimer
# [3] = target: T1, mTREX2; assay: X-ray crystallography (2.7 A); 2 Mg2+ per active site; Co-crystallization: mTREX2 5-8 mg/ml (stock 50 mM Tris-HCl, 400 mM NaCl, pH 7.0) with DNA at molar ratio 1:1.2; crystallization conditions in Table S2 not in the material; details: protein: recombinant; tags: pET28a vector, TALON-purified (His tag implied); chain copies: 2; hairpin; 3' overhang 2 nt
binder,measurement,setting,value
"mouse TREX2 (three prime repair exonuclease 2) (enzyme, TREX2, three prime repair exonuclease 2, mouse; NCBI Gene ID 24102; Cloned into pET28a and purified on a TALON column; Homodimer in the crystal and by gel filtration; also called mTREX2; apo-mTREX2; source: E. coli BL21-CodonPlus (DE3)-Rosetta, purified (HiTrap TALON, HiTrap Q, Superdex 75)) MSEPPRAETFVFLDLEATGLPNMDPEIAEISLFAVHRSSLENPERDDSGSLVLPRVLDKLTLCMCPERPFTAKASEITGLSSESLMHCGKAGFNGAVVRTLQGFLSRQEGPICLVAHNGFDYDFPLLCTELQRLGAHLPQDTVCLDTLPALRGLDRAHSHGTRAQGRKSYSLASLFHRYFQAEPSAAHSAEGDVHTLLLIFLHRAPELLAWADEQARSWAHIEPMYVPPDGPSLEA",stoichiometry N,[1],2
TGCCAGGCCCTCTTTAGGGCCTT (structured_DNA) [Y-shaped DNA (23-nt stem loop)],binding result,[2],binds
GGCCCTCTTTAGGGCCTT (structured_DNA) [duplex DNA with 2-nt 3'-overhang (stem loop)],binding result,[3],binds

# Reference: article PMC6294518, “Structural insights into the duplex DNA processing of TREX2” (Nucleic Acids Research, 2018)
